# Experimental data: publication PMC9870083
# Molecular target: RARα (UniProt P10276)
# Assay: Flag IP of RARα, GFP-p65 blot
# Conditions: reference: GFP-p65 wild type; sites S276
substance,measurement,value
RelA/p65 (from UniProt Q04206) GFP-p65-S276A,binding against the reference,lost
